T1: human MICA*008 α3 domain with a C-terminal His8 (Homo sapiens, MICA*008)
T1 chain: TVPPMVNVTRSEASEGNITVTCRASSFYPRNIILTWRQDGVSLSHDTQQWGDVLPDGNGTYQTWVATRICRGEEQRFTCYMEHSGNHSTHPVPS


Columns and labels:
[1] = differential scanning fluorimetry; settings: glycan gained; control: wild-type HER2 ECD alone or human IgG1 Fc alone
[2] = target: T2, human MICA*004 α3 domain with a C-terminal His8 (Homo sapiens, MICA*004, UniProt Q29983); assay: SPR
[3] = target: T3, human MICA*002 α3 domain with a C-terminal His8 (Homo sapiens, MICA*002, UniProt Q29983); assay: SPR
[4] = target: T4, human MICB*005 α3 domain with a C-terminal His8 (Homo sapiens, MICB*005, UniProt Q29980); assay: SPR
[5] = target: T1, human MICA*008 α3 domain with a …; assay: SPR
[6] = target: T2, human MICA*004 α3 domain with a …; assay: cell-based or functional assay
[7] = target: T3, human MICA*002 α3 domain with a …; assay: cell-based or functional assay
[8] = target: T4, human MICB*005 α3 domain with a …; assay: cell-based or functional assay
[9] = target: T1, human MICA*008 α3 domain with a …; assay: cell-based or functional assay

| Molecule | Kd [2] [nM] | Kd [3] [nM] | Kd [4] [nM] | Kd [5] [nM] | EC50 of inhibition of MICA*004 shedding from the HCC1534 cell line [6] [mg/L] | Max % inhibition of MICA*004 shedding from the HCC1534 cell line [6] [%] | EC50 of inhibition of MICA*002 shedding from the PANC1 cell line [7] [mg/L] | EC50 of inhibition of MICB*005 shedding from the HCC1534 cell line [8] [mg/L] | Max % inhibition of MICB*005 shedding from the HCC1534 cell line [8] [%] | EC50 of inhibition of MICA*008 shedding from the MEL-JUSO cell line [9] [mg/L] | stability_or_folding [1] |
| --- | --- | --- | --- | --- | --- | --- | --- | --- | --- | --- | --- |
| HER2 ECD: S310N | – | – | – | – | – | – | – | – | – | – | no change |
| HER2 ECD: K333N | – | – | – | – | – | – | – | – | – | – | no change |
| HER2 ECD: V308N | – | – | – | – | – | – | – | – | – | – | no change |

Continued, in another order:

| Kd [2] [nM] | Kd [3] [nM] | Kd [4] [nM] | Kd [5] [nM] | EC50 of inhibition of MICA*004 shedding from the HCC1534 cell line [6] [mg/L] | Max % inhibition of MICA*004 shedding from the HCC1534 cell line [6] [%] | EC50 of inhibition of MICA*002 shedding from the PANC1 cell line [7] [mg/L] | EC50 of inhibition of MICB*005 shedding from the HCC1534 cell line [8] [mg/L] | Max % inhibition of MICB*005 shedding from the HCC1534 cell line [8] [%] | EC50 of inhibition of MICA*008 shedding from the MEL-JUSO cell line [9] [mg/L] | Molecule | stability_or_folding [1] |
| --- | --- | --- | --- | --- | --- | --- | --- | --- | --- | --- | --- |
| 0.486 | 0.675 | 1.09 | 0.42 | 0.0136 | 65 | 0.0341 | 0.0386 | 59 | 0.0207 | anti-MICA/B antibody 1D5 (hybridoma-derived mouse antibody) (antibody, V domains shown) VH: EIQLQQSGPELVKPGASVKVSCKASGYAFTSQNIYWVKQSHGKSLEWIGYIEPYNVVPMYNPKFKGKATLTVDKSSSSAYIHLNSLTSEDSAIYYCARSGSSNFDYWGQGTTLTVSS VL: EIILTQSPTTMAASPGEKITITCSASSSISSHYLHWYQQKSGFSPKLLIYRTSNLASGVPARFSGSGSGTSYSLTIGTMEAEDVATYYCQQGSSLPLTFGAGTKLEIK | – |
| 8.42 | 2.96 | 5.75 | – | – | – | – | 0.0724 | 58 | – | anti-MICA/B antibody 6E1 (hybridoma-derived mouse antibody) (antibody, V domains shown) VH: QGQMQQSGAELVKPGASVKLSCKTSGFTFSDNYISWLKQKPGQSLEWIAWIYAGTGGSSYNQKFRDKAQLTVDTSSRTAYMQLSSLTTEDSAIYYCARHDYYGTSGAWFAYWGRGTLVTVSA VL: DVLMTQTPLSLPVSLGDQASISCRSSQHIVHSNENTYLEWYLQKPGQSPKLLIYKVSNRFSGVPDRFSGSGSGTDFTLKISRVEAEDLGVYYCFQGSHVPWTFGGGTKLEIK | – |
| 1.55 | 0.499 | 0.968 | 0.94 | 0.599 | 56 | 0.418 | 0.0349 | 76 | 0.794 | anti-MICA/B antibody 13A9 (hybridoma-derived mouse antibody) (antibody, V domains shown) VH: QVQLQQSGAELVRPGTSVKVSCKASGYAFTNYLIEWVKQRPGQGLEWIGAINPGSGATNYNEKFKDKARLTADKSSNTAYLQFSSLTSDDSAVYFCARFLGNYFDNWGQGATLTVSS VL: DIQMTQSPASLSASVGETVTITCRASGNIHSYLAWYQQKQGKSPQLLVYYAETLADGVPSRFSGRGSGTQYSLKINSLQPEDFGSYFCQQFWTTPYTFGGGTKVEIK | – |

— PMC6343778 (mAbs, 2018)
